Laboratory results as given in publication PMC7374887, “Severe syndromic ID and skewed X-inactivation in a child with NAA10 dysfunction and a novel heterozygous de novo NAA10 p.(His16Pro) variant - a case report” (BMC Medical Genetics, 2020).

Biological target: T1, NAA10 H16P-V5 (human, UniProt P41227-1 1-235, H16P)
T1 sequence (looked up): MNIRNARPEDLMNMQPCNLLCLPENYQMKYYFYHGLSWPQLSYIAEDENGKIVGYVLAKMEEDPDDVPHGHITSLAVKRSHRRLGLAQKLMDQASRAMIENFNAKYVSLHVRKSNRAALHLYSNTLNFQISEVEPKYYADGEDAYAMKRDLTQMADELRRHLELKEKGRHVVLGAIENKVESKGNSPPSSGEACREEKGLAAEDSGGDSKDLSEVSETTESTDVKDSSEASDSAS
Experiment: cell-based or functional assay

Nt-acetylation assay of the V5 immunoprecipitate towards the monomeric NAA10 substrate EEEI24, normalized to NAA10-V5, relative to NAA10 WT-V5: 1.5 fold
B1: NAA15 (natural protein, human (endogenous in HeLa), UniProt Q9BXJ9 1-866, looked up)
chain: MPAVSLPPKENALFKRILRCYEHKQYRNGLKFCKQILSNPKFAEHGETLAMKGLTLNCLGKKEEAYELVRRGLRNDLKSHVCWHVYGLLQRSDKKYDEAIKCYRNALKWDKDNLQILRDLSLLQIQMRDLEGYRETRYQLLQLRPAQRASWIGYAIAYHLLEDYEMAAKILEEFRKTQQTSPDKVDYEYSELLLYQNQVLREAGLYREALEHLCTYEKQICDKLAVEETKGELLLQLCRLEDAADVYRGLQERNPENWAYYKGLEKALKPANMLERLKIYEEAWTKYPRGLVPRRLPLNFLSGEKFKECLDKFLRMNFSKGCPPVFNTLRSLYKDKEKVAIIEELVVGYETSLKSCRLFNPNDDGKEEPPTTLLWVQYYLAQHYDKIGQPSIALEYINTAIESTPTLIELFLVKAKIYKHAGNIKEAARWMDEAQALDTADRFINSKCAKYMLKANLIKEAEEMCSKFTREGTSAVENLNEMQCMWFQTECAQAYKAMNKFGEALKKCHEIERHFIEITDDQFDFHTYCMRKITLRSYVDLLKLEDVLRQHPFYFKAARIAIEIYLKLHDNPLTDENKEHEADTANMSDKELKKLRNKQRRAQKKAQIEEEKKNAEKEKQQRNQKKKKDDDDEEIGGPKEELIPEKLAKVETPLEEAIKFLTPLKNLVKNKIETHLFAFEIYFRKEKFLLMLQSVKRAFAIDSSHPWLHECMIRLFNTAVCESKDLSDTVRTVLKQEMNRLFGATNPKNFNETFLKRNSDSLPHRLSAAKMVYYLDPSSQKRAIELATTLDESLTNRNLQTCMEVLEALYDGSLGDCKEAAEIYRANCHKLFPYALAFMPPGYEEDMKITVNGDSSAEAEELANEI
